# Results reported in article PMC10899793, “Toxin release by conditional remodelling of ParDE1 from Mycobacterium tuberculosis leads to gyrase inhibition” (Nucleic Acids Research, 2023).
# Experiments:
# [1] = target: ParE2 toxin of Mycobacterium tuberculosis H37Rv (Mycobacterium tuberculosis H37Rv) (UniProt P9WHG5); test: crystal structure
# [2] = target: ParE2 toxin of Mycobacterium tuberculosis H37Rv (Mycobacterium tuberculosis H37Rv) (UniProt P9WHG5); test: SEC
substance,measurement,setting,value
ParD2 antitoxin of Mycobacterium tuberculosis H37Rv (natural protein),stoichiometry N (ParD2 per ParE2 (1:1 heterodimer)),[1],1
same,stoichiometry N (ParD2 per ParE2 (2:2 heterotetramer)),[2],1
